Sequences and labels used below:
T1: human PRTG polypeptide (human, UniProt Q2VWP7 36-952, limits assumed)
T1 construct: also called protogenin
T1 sequence (looked up): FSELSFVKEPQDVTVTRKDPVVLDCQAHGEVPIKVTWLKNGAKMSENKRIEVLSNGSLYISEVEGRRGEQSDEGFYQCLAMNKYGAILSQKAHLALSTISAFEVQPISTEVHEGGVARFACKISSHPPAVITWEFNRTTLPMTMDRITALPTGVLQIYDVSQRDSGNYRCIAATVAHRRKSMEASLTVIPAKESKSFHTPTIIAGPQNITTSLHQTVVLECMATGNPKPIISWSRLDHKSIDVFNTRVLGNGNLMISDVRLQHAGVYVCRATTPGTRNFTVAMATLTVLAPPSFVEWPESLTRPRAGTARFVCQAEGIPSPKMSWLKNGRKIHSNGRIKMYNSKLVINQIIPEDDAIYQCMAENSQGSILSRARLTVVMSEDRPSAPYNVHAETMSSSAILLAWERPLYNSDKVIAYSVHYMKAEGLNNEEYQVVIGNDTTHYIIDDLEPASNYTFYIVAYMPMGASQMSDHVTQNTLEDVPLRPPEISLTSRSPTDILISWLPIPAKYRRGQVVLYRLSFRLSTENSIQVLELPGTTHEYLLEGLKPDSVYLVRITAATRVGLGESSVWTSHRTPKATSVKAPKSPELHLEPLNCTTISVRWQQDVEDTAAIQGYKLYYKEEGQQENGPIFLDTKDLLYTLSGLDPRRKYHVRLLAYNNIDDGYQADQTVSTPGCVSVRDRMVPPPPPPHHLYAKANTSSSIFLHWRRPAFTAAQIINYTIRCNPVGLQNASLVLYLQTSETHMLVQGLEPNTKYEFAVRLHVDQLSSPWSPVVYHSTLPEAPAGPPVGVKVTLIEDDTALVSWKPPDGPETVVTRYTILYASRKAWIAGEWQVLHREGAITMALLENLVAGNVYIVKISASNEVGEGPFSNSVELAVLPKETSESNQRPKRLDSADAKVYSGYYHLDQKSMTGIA

B1: VH domain Clone #4 (other)
VH: EVQLVESGGGLVQPGGSLRLSCAASGSAFGSHWMHWVRQAPGKGLEWVSSISSGGSSIYYADSVKGRFTISRDNSKNTLYLQMNSLRAEDTAVYYCARVRRDDDSNYRPFDVWGQGTMVTVSS
notes: also called #4 (VH domain)
B2: VH domain Clone #6 (other)
VH: EVQLVESGGGLVQPGGSLRLSCAASGFTFSNYGMSWVRQAPGQRLEWIGWIDTKTGNPRYGQGFTGRFTISRDNSKNTLYLQMNSLRAEDTATYYCVSTVPNGVEYFQHWGQGTLVTVSS
notes: also called #6 (VH domain)
B3: VH domain Clone #1 (other)
VH: EVQLVESGGGLVQPGGSLRLSCKASGFTVSSNYMHWVRQAPGKGLEWIGGINHSGRTNYKSSLKSRVTISRDNSKNTLYLQMNSLRAEDTAVYYCARLPPSRDGYNYADYWGQGTLVTVSS
notes: also called #1 (VH domain)
B4: VH domain Clone #8 (other)
VH: EVQLVESGGGLVQPGGSLRLSCKGSGFTFSNYWMHWVRQAPGKGLEWVSAISGSGGSTYYADSVKGRFTISRDNSKNTLYLQMNSLRAEDTATYYCATLCRGDSCYSPFDPWGQGTLVTVSSS
notes: also called #8 (VH domain)
B5: VH domain Clone #7 (other)
VH: EVQLVESGGGLVQPGGSLRLSCAASGFTFSNAWMSWVRQAPGKGLEWIGRIYSSGSTNYNPSLKSRVTISRDNSKNTLYLQMNSLRAEDTALYYCASTYRSSSGEYFQHWGQGTLVTVSSS
notes: also called #7 (VH domain)
B6: VH domain Clone #3 (other)
VH: EVQLVESGGGLVQPGGSLRLSCAASYFDFDSYEMSWVRQAPGKALEWLGRIYTSGTTNYNPSLKSRVTISRDNSKNTLYLQMNSLRAEDTATYYCAMTGPYYDSSGYYPARHAEYFQHWGQGTLVTVSS
notes: also called #3 (VH domain)
B7: VH domain Clone #5 (other)
VH: EVQLVESGGGLVQPGGSLRLSCKGSGFNFGDYAMHWVRQAPGKALEWIGYIYNTGSTKYNPSLKSLVTISRDNSKNTLYLQMNSLRAEDTATYYCVSTVTNGVEYFQHWGQGTLVTVSS
notes: also called #5 (VH domain)
B8: VH domain Clone #2 (other)
VH: EVQLVESGGGLVQPGGSLRLSCKGSGFTFSNFAMNWVRQAPGKGLEWVSAISGSGGSTYYADSVKGRFTISRDNSKNTLYLQMNSLRAEDTALYYCARGPDYYGSGSHGWFDPWGQGTLVTVSS
notes: also called #2 (VH domain)

For the assay, the target named is T1, human PRTG polypeptide. Briefly: ELISA and SPR (Blitz) as stated; which method gave the EC50 is not said. How it is done: Binding affinity and specificity to a human PRTG polypeptide were tested using an ELISA and SPR (Blitz). […] Clone #1 was determined to bind to the human PRTG fibronectin type-III 1 domain; clone #2 was determined to bind to the human PRTG fibronectin type-III 3 domain; and clones #3, #4, #5, #6, #7, and #8 were determined to bind to the human PRTG fibronectin type-III 5 domain. Clone #1 binding to the human PRTG fibronectin type-III 1 domain was determined by ELISA. Clone #2 binding was based on the panning being performed using a PRTG fibronectin type-III 3 domain; and clones #3, #4, #5, #6, #7, and #8 binding was based on the panning being performed using a PRTG fibronectin type-III 5 domain.
Background: An ELISA detects its analyte on a solid surface through an enzyme-linked reagent.
As usually defined, the EC50 is the concentration that produces a half-maximal response. A higher EC50 goes with a less potent agent. B1 gave an EC50 of 0.9 nM.

In the case of B2, the EC50 turned out to be 6.25 nM. Regarding B3, it took 2.8 nM to reach a half-maximal effect (EC50). To B4 belongs 0.81 nM.

For B5, the EC50 is 0.29 nM.

Turning to B6, the 50% effective concentration (EC50) turned out to be 0.75 nM.

B7 registered an EC50 of 1.35 nM. As for B8, the concentration giving a half-maximal response (EC50) was 30 nM.

Source of the values: patent US20240358762A1 (UNIVERSITY OF PITTSBURGH OF THE COMMONWEALTH SYSTEM OF …, published 2024).
